Results reported in the supplement of paper PMC11780869.

System: Bacillus subtilis
Test: cleaved RNA product abundance (RNA/gDNA barcode ratio) relative to median wild-type variant (ratio to wild type); higher = more accumulation of the downstream cleavage product
Conditions: cleavage site: cggR-gapA (positions -7 to +36 mutated)
Procedure, shortened: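 Reporter mRNAs (truncated aprE or tetM) carrying barcoded, mutagenized RNase Y cleavage-site windows were made from oligos with a 9% error rate and integrated into the B. subtilis chromosome. Cultures grew in LB at 37°C from OD600 0.0003 to 0.3. Cleaved RNA was gel-selected, reverse transcribed and barcode-sequenced alongside genomic DNA barcodes, with UMI collapsing. Cleaved product abundance is the RNA:gDNA barcode ratio per variant, scaled to the median wild-type variant.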

[1] = experiment (reporter, strain, medium): exp 4a: truncated aprE reporter, strain BJT201 with 2% xylose (RNase J1 expressed)
[2] = experiment (reporter, strain, medium): exp 2b: truncated aprE reporter, strain BJT200

Sequence | cleaved RNA product abundance [1] | cleaved RNA product abundance [2] | cleaved RNA product abundance (experiment (reporter, strain, medium): exp 6: tetM reporter, strain 168)
ACAGACGAAGGAGCCGCAAAGCATTTATTAAGGGATGAATAATCCCTCAATATAAATATCTCTCACTTATTTAAA | 0.256 |  | 
ACAGACGAAGGAGCCGCAAAGGAATTATTAAGGGATGAATAATCCCTCAATATAAATATCTCTCACTTATTTAAA | 0.671 |  | 
ACAGACGAAGGAGCCGCAAAGGACTTATTAAGGGATGAATAATCCCTCAATATAAATATCTCTCACTTATTTAAA | 0.173 |  | 
ACAGACGAAGGAGCCGCAAAGGAGCTATTAAGGGATGAATAATCCCTCAATATAAATATCTCTCACTTATTTAAA |  | 0.502 | 
ACAGACGAAGGAGCCGCAAAGGAGTTAATAAGGGATGAATAATCCCTCAATATAAATATCTCTCACTTATTTAAA | 0.436 | 0.34 | 
ACAGACGAAGGAGCCGCAAAGGAGTTATTAAAGGATGAATAATCCCTCAATATAAATATCTCTCACTTATTTAAA | 0.108 | 0.161 | 
ACAGACGAAGGAGCCGCAAAGGAGTTATTAAGAGATGAATAATCCCTCAATATAAATATCTCTCACTTATTTAAA | 0.199 |  | 
ACAGACGAAGGAGCCGCAAAGGAGTTATTAAGGAATGAATAATCCCTCAATATAAATATCTCTCACTTATTTAAA | 0.144 |  | 
ACAGACGAAGGAGCCGCAAAGGAGTTATTAAGGGAAGAATAATCCCTCAATATAAATATCTCTCACTTATTTAAA |  | 0.495 | 
ACAGACGAAGGAGCCGCAAAGGAGTTATTAAGGGATAAATAATCCCTCAATATAAATATCTCTCACTTATTTAAA | 0.789 | 0.828 | 
ACAGACGAAGGAGCCGCAAAGGAGTTATTAAGGGATGAAAAATCCCTCAATATAAATATCTCTCACTTATTTAAA | 0.576 |  | 
ACAGACGAAGGAGCCGCAAAGGAGTTATTAAGGGATGAAGAATCCCTCAATATAAATATCTCTCACTTATTTAAA | 0.859 |  | 
ACAGACGAAGGAGCCGCAAAGGAGTTATTAAGGGATGAATAATACCTCAATATAAATATCTCTCACTTATTTAAA | 0.192 | 0.131 | 
ACAGACGAAGGAGCCGCAAAGGAGTTATTAAGGGATGAATAATCCCCCAATATAAATATCTCTCACTTATTTAAA | 0.247 |  | 
ACAGACGAAGGAGCCGCAAAGGAGTTATTAAGGGATGAATAATCCCTCAATAAAAATATCTCTCACTTATTTAAA |  | 0.165 | 
ACAGACGAAGGAGCCGCAAAGGAGTTATTAAGGGATGAATAATCCCTCAATATAAATATCTCTCACTTATTTAAA | 0.982 | 1.06 | 0.911
ACAGACGAAGGAGCCGCAAAGGAGTTATTAAGGGATGAATAATCCCTCAATATCAATATCTCTCACTTATTTAAA | 0.134 |  | 
ACAGACGAAGGAGCCGCAAAGGAGTTATTAAGGGATGAATAATCCCTCACTATAAATATCTCTCACTTATTTAAA | 0.302 |  | 
ACAGACGAAGGAGCCGCAAAGGAGTTATTAAGGGATGAATAATCCCTGAATATAAATATCTCTCACTTATTTAAA | 0.361 |  | 
ACAGACGAAGGAGCCGCAAAGGAGTTATTAAGGGATGAATAATTCCTCAATATAAATATCTCTCACTTATTTAAA |  | 0.328 | 
ACAGACGAAGGAGCCGCAAAGGAGTTATTAAGGGATGACTAATCCCTCAATATAAATATCTCTCACTTATTTAAA | 0.596 | 0.423 | 
ACAGACGAAGGAGCCGCAAAGGAGTTATTAAGTGATGAATAATCCCTCAATATAAATATCTCTCACTTATTTAAA | 0.162 |  | 
ACAGACGAAGGAGCCGCAAAGGAGTTATTAATGGATGAATAATCCCTCAATATAAATATCTCTCACTTATTTAAA | 0.114 |  | 

Sequence | cleaved RNA product abundance [1] | cleaved RNA product abundance [2] | cleaved RNA product abundance (experiment (reporter, strain, medium): exp 6: tetM reporter, strain 168)
ACAGACGAAGGAGCCGCAAAGGAGTTTTTAAGGGATGAATAATCCCTCAATATAAATATCTCTCACTTATTTAAA | 0.369 |  | 
ACAGACGAAGGAGCCGCAAAGTAATTATTAAGGGATGAATAATCCCTCAATATAAATATCTCTCACTTATTTAAA | 0.645 |  | 
ACAGACGAAGGAGCCGCAAAGTACTTATTAAGGGATGAATAATCCCTCAATATAAATATCTCTCACTTATTTAAA | 0.803 | 0.437 | 
ACAGACGAAGGAGCCGCAAAGTAGTAATTAAGGGATGAATAATCCCTCAATATAAATATCTCTCACTTATTTAAA | 0.191 |  | 
ACAGACGAAGGAGCCGCAAAGTAGTTAATAAGGGATGAATAATCCCTCAATATAAATATCTCTCACTTATTTAAA | 0.433 | 0.292 | 
ACAGACGAAGGAGCCGCAAAGTAGTTAATAATGGATGAATAATCCCTCAATATAAATATCTCTCACTTATTTAAA | 0.0855 |  | 
ACAGACGAAGGAGCCGCAAAGTAGTTATAAAGGGATGAATAATCCCTCAATATAAATATCTCTCACTTATTTAAA | 0.301 |  | 
ACAGACGAAGGAGCCGCAAAGTAGTTATTAAAGGATGAATAATCCATCAATATAAATATCTCTCACTTATTTAAA | 0.153 |  | 
ACAGACGAAGGAGCCGCAAAGTAGTTATTAAAGGATGAATAATCCCTCAATATAAATATCTCTCACTTATTTAAA | 0.208 |  | 
ACAGACGAAGGAGCCGCAAAGTAGTTATTAACGGATGAATAATCCCTCAATATAAATATCTCTCACTTATTTAAA | 0.164 |  | 
ACAGACGAAGGAGCCGCAAAGTAGTTATTAAGAGATGAATAATCCCTCAATATAAATATCTCTCACTTATTTAAA | 0.124 | 0.126 | 
ACAGACGAAGGAGCCGCAAAGTAGTTATTAAGCGATGAATAATCCCTCAATATAAATATCTCTCACTTATTTAAA | 0.0692 | 0.0839 | 
ACAGACGAAGGAGCCGCAAAGTAGTTATTAAGGAATGAATAATCCCTCAATATAAATATCTCTCACTTATTTAAA | 0.148 |  | 
ACAGACGAAGGAGCCGCAAAGTAGTTATTAAGGCATGAATAATCCCTCAATATAAATATCTCTCACTTATTTAAA | 0.124 | 0.101 | 
ACAGACGAAGGAGCCGCAAAGTAGTTATTAAGGGAGGAATAATCCCTCAATATAAATATCTCTCACTTATTTAAA | 0.557 |  | 
ACAGACGAAGGAGCCGCAAAGTAGTTATTAAGGGATAAATAATCCCTCAATATAAATATCTCTCACTTATTTAAA | 0.9 |  | 
ACAGACGAAGGAGCCGCAAAGTAGTTATTAAGGGATCAATAATCCCTCAATATAAATATCTCTCACTTATTTAAA | 1.25 |  | 
ACAGACGAAGGAGCCGCAAAGTAGTTATTAAGGGATGAACAATCCCTCAATATAAATATCTCTCACTTATTTAAA | 0.763 |  | 
ACAGACGAAGGAGCCGCAAAGTAGTTATTAAGGGATGAATAACCCCTCAATATAAATATCTCTCACTTATTTAAA | 0.762 |  | 
ACAGACGAAGGAGCCGCAAAGTAGTTATTAAGGGATGAATAAGCCCTCAATATAAATATCTCTCACTTATTTAAA | 0.448 |  | 
ACAGACGAAGGAGCCGCAAAGTAGTTATTAAGGGATGAATAATACCTCAATATAAATATCTCTCACTTATTTAAA | 0.176 | 0.155 | 
ACAGACGAAGGAGCCGCAAAGTAGTTATTAAGGGATGAATAATCACTCAATATAAATATCTCTCACTTATTTAAA | 0.183 | 0.11 | 
ACAGACGAAGGAGCCGCAAAGTAGTTATTAAGGGATGAATAATCCATCAATATAAATATCTCTCACTTATTTAAA | 0.161 | 0.187 | 
